Measurements reported in US20250115669A1, “FGFR1/KLB Targeting Agonistic Antigen-Binding Proteins and Conjugates Thereof with GLP-1R Agonistic Peptides” (SANOFI, priority 2020, published 2025).

T1: human beta-Klotho (Homo sapiens, UniProt Q86Z14)
T1 sequence (Q86Z14 1-1044): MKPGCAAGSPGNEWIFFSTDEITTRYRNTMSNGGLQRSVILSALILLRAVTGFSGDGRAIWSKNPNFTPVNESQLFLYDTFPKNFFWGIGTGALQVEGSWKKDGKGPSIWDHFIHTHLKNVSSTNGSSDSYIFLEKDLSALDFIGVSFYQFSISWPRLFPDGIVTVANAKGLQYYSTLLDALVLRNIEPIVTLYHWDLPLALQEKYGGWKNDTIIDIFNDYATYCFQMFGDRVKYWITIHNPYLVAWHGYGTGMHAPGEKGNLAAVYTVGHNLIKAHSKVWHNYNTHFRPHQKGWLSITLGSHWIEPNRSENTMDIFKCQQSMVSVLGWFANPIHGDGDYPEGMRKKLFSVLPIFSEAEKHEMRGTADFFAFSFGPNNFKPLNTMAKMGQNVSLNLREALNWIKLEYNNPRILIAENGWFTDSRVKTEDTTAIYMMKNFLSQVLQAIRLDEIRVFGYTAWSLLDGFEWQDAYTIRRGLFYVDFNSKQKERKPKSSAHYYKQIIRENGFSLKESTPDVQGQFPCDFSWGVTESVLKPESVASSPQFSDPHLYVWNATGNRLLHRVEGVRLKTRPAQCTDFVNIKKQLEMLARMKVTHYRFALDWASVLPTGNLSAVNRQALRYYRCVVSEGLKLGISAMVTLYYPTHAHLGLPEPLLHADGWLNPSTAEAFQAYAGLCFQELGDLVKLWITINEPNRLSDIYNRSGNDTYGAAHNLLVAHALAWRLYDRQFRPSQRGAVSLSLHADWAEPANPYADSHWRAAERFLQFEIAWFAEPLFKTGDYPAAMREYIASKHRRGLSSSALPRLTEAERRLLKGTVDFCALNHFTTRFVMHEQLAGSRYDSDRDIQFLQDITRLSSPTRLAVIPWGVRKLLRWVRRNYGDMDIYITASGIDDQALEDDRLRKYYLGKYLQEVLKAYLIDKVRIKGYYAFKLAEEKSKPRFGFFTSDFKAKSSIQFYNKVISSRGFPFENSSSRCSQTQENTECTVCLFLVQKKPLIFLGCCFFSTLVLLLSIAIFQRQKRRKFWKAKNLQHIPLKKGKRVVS


These molecules were tested against T1, human beta-Klotho (assay: SPR off-rate screening of antibody mutants (human beta-Klotho captured by anti-His antibody)). Conditions: mean, n=3.
Type: binding
Procedure, shortened: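 Using beta-Klotho bound through its His tag to an anti-His capture surface, we measure dissociation of 50 nmol/L antibody analytes over 300 sec following 240 sec of association; surfaces are regenerated between cycles and kd is fitted single-exponentially.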

Row | koff human KLB | Molecule
1 | 0.00188 s⁻¹ | Ab0345: IgG4 PE; 16H7 VL (N25S, D49A, D50A, D91E, N93A); 16H7 VH (M34V, I83T, D109E) (antibody) VH: QVTLKESGPVLVKPTETLTLTCTVSGFSLNNARVGVSWIRQPPGKALEWLAHIFSNDEKSYSTSLKSRLTISKDTSKSQVVLTMTNMDPVDTATYYCARSVVTGGYYYEGMDVWGQGTTVTVSS light: SYVLTQPPSVSVAPGQTARITCGGSNIGSESVHWYQQKPGQAPVLVVYAASDRPSGIPERFSGSNSGNTATLTISRVEAGDEADYYCQVWEGASDHVVFGGGTKLTVLGQPKANPTVTLFPPSSEELQANKATLVCLISDFYPGAVTVAWKADGSPVKAGVETTKPSKQSNNKYAASSYLSLTPEQWKSHRSYSCQVTHEGSTVEKTVAPTECS
2 | 0.00158 s⁻¹ | Ab0354: IgG4 PE; 16H7 VL (N25S, D49E, D50E, D91H, N93S); 16H7 VH (M34V, I83T, D109E) (antibody) VH: QVTLKESGPVLVKPTETLTLTCTVSGFSLNNARVGVSWIRQPPGKALEWLAHIFSNDEKSYSTSLKSRLTISKDTSKSQVVLTMTNMDPVDTATYYCARSVVTGGYYYEGMDVWGQGTTVTVSS light: SYVLTQPPSVSVAPGQTARITCGGSNIGSESVHWYQQKPGQAPVLVVYEESDRPSGIPERFSGSNSGNTATLTISRVEAGDEADYYCQVWHGSSDHVVFGGGTKLTVLGQPKANPTVTLFPPSSEELQANKATLVCLISDFYPGAVTVAWKADGSPVKAGVETTKPSKQSNNKYAASSYLSLTPEQWKSHRSYSCQVTHEGSTVEKTVAPTECS
3 | 0.0004194 s⁻¹ | Ab0352: IgG4 PE; 16H7 VL (N25S, D49E, D50E, D91E, N93S); 16H7 VH (M34V, I83T, D109E) (antibody) VH: QVTLKESGPVLVKPTETLTLTCTVSGFSLNNARVGVSWIRQPPGKALEWLAHIFSNDEKSYSTSLKSRLTISKDTSKSQVVLTMTNMDPVDTATYYCARSVVTGGYYYEGMDVWGQGTTVTVSS light: SYVLTQPPSVSVAPGQTARITCGGSNIGSESVHWYQQKPGQAPVLVVYEESDRPSGIPERFSGSNSGNTATLTISRVEAGDEADYYCQVWEGSSDHVVFGGGTKLTVLGQPKANPTVTLFPPSSEELQANKATLVCLISDFYPGAVTVAWKADGSPVKAGVETTKPSKQSNNKYAASSYLSLTPEQWKSHRSYSCQVTHEGSTVEKTVAPTECS
4 | invalid fit | Ab0350: IgG4 PE; 16H7 VL (N25S, D49E, D50E, D91A, N93S); 16H7 VH (M34V, I83T, D109E) (antibody) VH: QVTLKESGPVLVKPTETLTLTCTVSGFSLNNARVGVSWIRQPPGKALEWLAHIFSNDEKSYSTSLKSRLTISKDTSKSQVVLTMTNMDPVDTATYYCARSVVTGGYYYEGMDVWGQGTTVTVSS light: SYVLTQPPSVSVAPGQTARITCGGSNIGSESVHWYQQKPGQAPVLVVYEESDRPSGIPERFSGSNSGNTATLTISRVEAGDEADYYCQVWAGSSDHVVFGGGTKLTVLGQPKANPTVTLFPPSSEELQANKATLVCLISDFYPGAVTVAWKADGSPVKAGVETTKPSKQSNNKYAASSYLSLTPEQWKSHRSYSCQVTHEGSTVEKTVAPTECS
5 | invalid fit | Ab0349: IgG4 PE; 16H7 VL (N25S, D49E, D50E, D91T, N93S); 16H7 VH (M34V, I83T, D109E) (antibody) VH: QVTLKESGPVLVKPTETLTLTCTVSGFSLNNARVGVSWIRQPPGKALEWLAHIFSNDEKSYSTSLKSRLTISKDTSKSQVVLTMTNMDPVDTATYYCARSVVTGGYYYEGMDVWGQGTTVTVSS light: SYVLTQPPSVSVAPGQTARITCGGSNIGSESVHWYQQKPGQAPVLVVYEESDRPSGIPERFSGSNSGNTATLTISRVEAGDEADYYCQVWTGSSDHVVFGGGTKLTVLGQPKANPTVTLFPPSSEELQANKATLVCLISDFYPGAVTVAWKADGSPVKAGVETTKPSKQSNNKYAASSYLSLTPEQWKSHRSYSCQVTHEGSTVEKTVAPTECS
6 | invalid fit | Ab0346: IgG4 PE; 16H7 VL (N25S, D49A, D50H, D91A, N93S); 16H7 VH (M34V, I83T, D109E) (antibody) VH: QVTLKESGPVLVKPTETLTLTCTVSGFSLNNARVGVSWIRQPPGKALEWLAHIFSNDEKSYSTSLKSRLTISKDTSKSQVVLTMTNMDPVDTATYYCARSVVTGGYYYEGMDVWGQGTTVTVSS light: SYVLTQPPSVSVAPGQTARITCGGSNIGSESVHWYQQKPGQAPVLVVYAHSDRPSGIPERFSGSNSGNTATLTISRVEAGDEADYYCQVWAGSSDHVVFGGGTKLTVLGQPKANPTVTLFPPSSEELQANKATLVCLISDFYPGAVTVAWKADGSPVKAGVETTKPSKQSNNKYAASSYLSLTPEQWKSHRSYSCQVTHEGSTVEKTVAPTECS
7 | 0.0003799 s⁻¹ | Ab0353: IgG4 PE; 16H7 VL (N25S, D49E, D50E, D91E, N93A); 16H7 VH (M34V, I83T, D109E) (antibody) VH: QVTLKESGPVLVKPTETLTLTCTVSGFSLNNARVGVSWIRQPPGKALEWLAHIFSNDEKSYSTSLKSRLTISKDTSKSQVVLTMTNMDPVDTATYYCARSVVTGGYYYEGMDVWGQGTTVTVSS light: SYVLTQPPSVSVAPGQTARITCGGSNIGSESVHWYQQKPGQAPVLVVYEESDRPSGIPERFSGSNSGNTATLTISRVEAGDEADYYCQVWEGASDHVVFGGGTKLTVLGQPKANPTVTLFPPSSEELQANKATLVCLISDFYPGAVTVAWKADGSPVKAGVETTKPSKQSNNKYAASSYLSLTPEQWKSHRSYSCQVTHEGSTVEKTVAPTECS
8 | invalid fit | Ab0348: IgG4 PE; 16H7 VL (N25S, D49E, D50E, D91T, N93E); 16H7 VH (M34V, I83T, D109E) (antibody) VH: QVTLKESGPVLVKPTETLTLTCTVSGFSLNNARVGVSWIRQPPGKALEWLAHIFSNDEKSYSTSLKSRLTISKDTSKSQVVLTMTNMDPVDTATYYCARSVVTGGYYYEGMDVWGQGTTVTVSS light: SYVLTQPPSVSVAPGQTARITCGGSNIGSESVHWYQQKPGQAPVLVVYEESDRPSGIPERFSGSNSGNTATLTISRVEAGDEADYYCQVWTGESDHVVFGGGTKLTVLGQPKANPTVTLFPPSSEELQANKATLVCLISDFYPGAVTVAWKADGSPVKAGVETTKPSKQSNNKYAASSYLSLTPEQWKSHRSYSCQVTHEGSTVEKTVAPTECS
9 | invalid fit | Ab0347: IgG4 PE; 16H7 VL (N25S, D49A, D50S, D91A, N93S); 16H7 VH (M34V, I83T, D109E) (antibody) VH: QVTLKESGPVLVKPTETLTLTCTVSGFSLNNARVGVSWIRQPPGKALEWLAHIFSNDEKSYSTSLKSRLTISKDTSKSQVVLTMTNMDPVDTATYYCARSVVTGGYYYEGMDVWGQGTTVTVSS light: SYVLTQPPSVSVAPGQTARITCGGSNIGSESVHWYQQKPGQAPVLVVYASSDRPSGIPERFSGSNSGNTATLTISRVEAGDEADYYCQVWAGSSDHVVFGGGTKLTVLGQPKANPTVTLFPPSSEELQANKATLVCLISDFYPGAVTVAWKADGSPVKAGVETTKPSKQSNNKYAASSYLSLTPEQWKSHRSYSCQVTHEGSTVEKTVAPTECS
